Legend:
[1] = molecular target: Human β-Klotho (KLB) on 293/KLB cells (human) (UniProt Q86Z14)
[2] = molecular target: Human β-Klotho (KLB) on 293/KLB cells (human) (UniProt Q86Z14); remark: listed apart in the source

Sequence of Human β-Klotho (KLB) on 293/KLB cells (human) (Q86Z14 whole entry): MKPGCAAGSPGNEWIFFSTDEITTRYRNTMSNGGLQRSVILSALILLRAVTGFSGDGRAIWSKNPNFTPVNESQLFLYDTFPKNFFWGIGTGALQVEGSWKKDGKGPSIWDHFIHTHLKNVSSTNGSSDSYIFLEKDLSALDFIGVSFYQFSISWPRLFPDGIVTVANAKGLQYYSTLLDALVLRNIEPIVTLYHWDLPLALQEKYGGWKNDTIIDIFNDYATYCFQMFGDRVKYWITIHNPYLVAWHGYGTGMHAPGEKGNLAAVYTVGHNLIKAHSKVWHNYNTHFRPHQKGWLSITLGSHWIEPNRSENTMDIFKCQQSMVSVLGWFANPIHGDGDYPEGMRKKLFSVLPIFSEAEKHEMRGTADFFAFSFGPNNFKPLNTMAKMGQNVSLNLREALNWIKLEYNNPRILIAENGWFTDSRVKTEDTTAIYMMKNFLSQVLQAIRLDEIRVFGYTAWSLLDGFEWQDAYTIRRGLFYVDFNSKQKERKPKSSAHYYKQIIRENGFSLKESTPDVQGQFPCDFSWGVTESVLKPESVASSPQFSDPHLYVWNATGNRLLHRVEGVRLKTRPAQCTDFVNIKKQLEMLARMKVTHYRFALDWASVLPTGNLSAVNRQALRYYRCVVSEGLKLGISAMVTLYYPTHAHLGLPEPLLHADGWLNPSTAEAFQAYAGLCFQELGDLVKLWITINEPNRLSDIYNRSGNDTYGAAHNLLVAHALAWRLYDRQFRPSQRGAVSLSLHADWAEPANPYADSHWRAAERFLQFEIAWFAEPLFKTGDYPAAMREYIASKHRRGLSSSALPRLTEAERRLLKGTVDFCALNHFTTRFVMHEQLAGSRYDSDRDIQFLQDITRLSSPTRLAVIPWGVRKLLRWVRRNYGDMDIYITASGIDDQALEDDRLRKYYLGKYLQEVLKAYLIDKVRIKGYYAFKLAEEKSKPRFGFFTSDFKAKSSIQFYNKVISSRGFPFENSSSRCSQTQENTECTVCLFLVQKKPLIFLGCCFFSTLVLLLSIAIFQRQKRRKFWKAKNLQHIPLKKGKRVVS
Sequence of 19C26,A^26 (O95750 other isoform, or with tags, fused parts or gaps): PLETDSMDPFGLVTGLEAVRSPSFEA
Sequence of FGF21-19A hybrid (Q9NSA1 other isoform, or with tags, fused parts or gaps): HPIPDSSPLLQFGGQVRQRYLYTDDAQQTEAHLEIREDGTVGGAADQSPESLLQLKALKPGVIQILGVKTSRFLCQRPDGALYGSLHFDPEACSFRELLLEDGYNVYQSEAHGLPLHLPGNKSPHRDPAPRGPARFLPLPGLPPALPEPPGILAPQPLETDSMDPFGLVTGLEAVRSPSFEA

Substance | potency of inhibition of FGF21 and FGF19 pERK signalling in 293/KLB cells, relative to 19C26, 21C25 and FGF21^18−181 [1] | pERK agonism in 293/KLB and Hep3B cells, potency relative to native FGF21 [2]
19C26,A^26 (from UniProt O95750 191-216) (peptide) | > 20 fold | –
FGF21-19A hybrid (from UniProt Q9NSA1 29-184; O95750 191-216) (ligand) | – | 10 fold

— publication PMC6026317, “Molecular elements in FGF19 and FGF21 defining KLB/FGFR activity and specificity” (Molecular Metabolism, 2018)
